{
  "source": "patent US20100143379A1",
  "about": "(priority 2005, published 2010)",
  "key": {"HIV-1ADA": {"tested_on": "HIV-1ADA", "assay": "HIV-1 replication in monocyte-derived macrophage cultures (RT activity)", "assay_type": "cell-based", "settings": "recombinant MIF 50 ng/ml", "method": "Triplicate cultures of monocyte-derived macrophages were infected with HIV-1ADA in the presence of anti-MIF MAb (25 μg/ml) or isotype control. Virus replication was monitored by RT activity in culture supernatants. Results are presented as mean±SD. […] Control cultures were cultivated with PMB mixed with an isotype immunoglobulin with or without MIF.\nTo investigate this possibility, HIV-infected macrophages were cultured in the presence of a neutralizing anti-MIF antibody or isotype control. Triplicate cultures of monocyte-derived macrophages were infected with HIV-1ADA in the presence of anti-MIF MAb (25 μg/ml) or isotype control. Virus replication was monitored by RT activity in culture supernatants. […] Control cultures were cultivated with PMB mixed with an isotype immunoglobulin with or without MIF."}, "p38": {"tested_on": "p38", "assay": "MAP kinase phosphorylation in differentiating K562 progenitors (Western blot)", "assay_type": "cell-based, human", "settings": "16 hrs, p<0.01; 96 hrs, p<0.04", "method": "(§1) MIF addition markedly affected these differentiation-associated, MAP kinase responses.\n(§2) Western Blot Analysis. Immunoblotting with antibodies directed against phospho-ERK1/2, total ERK1/2, phospho-JNK1/2, total JNK1/2, phospho-p38, and total p38 was performed according to the manufacturer's instructions (New England Biolabs, Beverly, Mass.). The secondary antibody was an anti-rabbit IgG conjugated to horseradish peroxidase and detection was by chemiluminescence according to the manufacture's instructions (Amersham Pharmacia Biotech, Piscataway, N.J.). For quantitation of signal intensity of phospho-specific kinase results, western blots were scanned using a UMAX, PowerLook IIII scanner and the images were analyzed using UN-SCAN-IT gel Automated Digitizing system software version 5.1 (Silk Scientific Corporation, USA). The ratio between phosphorylated to the total MAP kinase was determined and expressed as a fold-change for each lane (mean±S.E.M for three blots from independent cell cultures). The p values were calculated for each of the time course comparisons (4, 16, 96 hrs) of three different experiments (Student T-test, two-tailed)."}, "ERK-1/2": {"tested_on": "ERK-1/2", "assay": "MAP kinase phosphorylation in differentiating K562 progenitors (Western blot)", "assay_type": "cell-based, human", "settings": "K562 in differentiation medium", "method": "as §1, §2"}, "JNK-1/2": {"tested_on": "JNK-1/2", "assay": "MAP kinase phosphorylation in differentiating K562 progenitors (Western blot)", "assay_type": "cell-based, human", "settings": "vs differentiation medium alone; did not reach statistical significance (96 hrs, p<0.06)", "method": "as §1, §2"}, "CD74": {"tested_on": "CD74", "assay": "CD74 phospho-serine sandwich ELISA", "assay_type": "cell-based", "settings": "MIF 100 ng/ml, 10 mins; COS-7/CD74+CD44 cell line and wild-type MEFs", "method": "(§3) FIGS. 12A-12E show the phosphoserine content of CD74 and CD44 measured by ELISA. […] The ELISA values represent the mean±SD of triplicate measurements. Experiments were replicated twice. *P<0.02 versus corresponding control (Student's T test, two-tailed). […] Cell lysates were prepared and probed for PKA and PKC using phospho-specific, and total anti-PKA and anti-PKC antibodies.\nThe observation that the phosphoserine content of CD74 increased only in cells that expressed CD74 and full-length CD44 is consistent with the notion that the MIF-mediated phosphorylation of CD74 is dependent on the activity of the CD44 intracytoplasmic domain.\nThe serine phosphorylation of CD74 and CD44 was quantified by specific sandwich ELISA (Perez et al. (2003). Nature Immunol 4:1083-92). […] After several washes (0.5% Tween-20 in PBS), 0.2 μg/ml anti-phospho-serine antibody (Hypromatrix) conjugated with horseradish peroxidase was added, and immunoreactivity measured by the TMB reagent (DakoCytomation) and the data analyzed with SpectraMax Plus (Molecular Devices).\nCell lysates were collected and analyzed by immunoblots using a pair of anti-phospho-PICA and anti-(total)-PKA antibodies, a pair of anti-phospho-PKC (all from Cell Signaling) and anti-(total)-PKC (Santa Cruz) antibodies, or a pair of anti-phospho-p56^lck (Cell Signaling) and anti-(total) p56^lck (sc-433, Santa Cruz) antibodies."}, "CD44": {"tested_on": "CD44", "assay": "CD44 phospho-serine sandwich ELISA", "assay_type": "cell-based", "settings": "MIF 100 ng/ml, 10 mins", "method": "as §3\nSer325 is constitutively phosphorylated in resting cells, but undergoes de-phosphorylation in response to PKC activating stimuli such as phorbol esters. […] The effect of MIF-stimulation CD44 phosphorylation was analyzed in the COS-7 and MEF cell lines by sandwich ELISA using an anti-CD44 capture antibody to quantify CD44 phospho-serine residues (Perez et al. (2003). Nature Immunol. 4:1083-92). […]\nThe serine phosphorylation of CD74 and CD44 was quantified by specific sandwich ELISA (Perez et al. (2003). Nature Immunol 4:1083-92). […] After several washes (0.5% Tween-20 in PBS), 0.2 μg/ml anti-phospho-serine antibody (Hypromatrix) conjugated with horseradish peroxidase was added, and immunoreactivity measured by the TMB reagent (DakoCytomation) and the data analyzed with SpectraMax Plus (Molecular Devices). […]"}, "CXCR4": {"tested_on": "CXCR4", "assay": "Cell surface receptor expression in monocyte-derived macrophages (FACS)", "assay_type": "cell-based", "settings": "50 ng/ml with PMB 10 μg/ml, 48 h", "method": "Cell surface expression of CCR5 and CXCR4 was analyzed by FACS after staining with FITC-conjugated anti-CCR5 and PE-conjugated anti-CXCR4 antibodies (Pharmingen). Results (percent of receptor-positive cells) are shown as mean±SE for three performed experiments.\nCell surface expression of CCR5 and CXCR4 was analyzed by FACS after staining with FITC-conjugated anti-CCR5 and PE-conjugated anti-CXCR4 antibodies (Pharmingen) (FIG. 9)."}},
  "data": [
    {"molecule": "MIF: macrophage migration inhibitory factor; recombinant mouse or human MIF purified essentially free of endotoxin (protein) PMFIVNTNVPRASVPDGFLSELTQQLAQATGKPPQYIAVHVVPDQLMAFGGSSEPCALCSLHSIGKIGGAQNRSYSKLLCGLLAERLRISPDRVYINYYDMNAANVGWNNSTFA", "values": [
      {"measurement": "HIV-1 replication (RT activity)", "setting": "HIV-1ADA", "result": "significantly suppressed replication"},
      {"measurement": "differentiation-associated changes in p38 MAP kinase phosphorylation", "setting": "p38", "result": "reduced"},
      {"measurement": "duration of ERK-1/2 phosphorylation", "setting": "ERK-1/2", "result": "at least 96 hrs"},
      {"measurement": "ERK-1/2 phosphorylation", "setting": "ERK-1/2; 16 hrs", "result": "phosphorylation was high at 16 hrs"},
      {"measurement": "JNK-1/2 phosphorylation", "setting": "JNK-1/2", "result": "appeared to upregulate JNK-1/2 phosphorylation"},
      {"measurement": "phosphorylation of CD74 (phospho-serine content)", "setting": "CD74", "result": "increased significantly"},
      {"measurement": "net content of CD44 serine phosphorylation", "setting": "CD44", "result": "did not change"},
      {"measurement": "CXCR4 expression", "setting": "CXCR4", "result": "without altering expression of CXCR4"}
    ]}
  ]
}
